For one substance, EC50, Arrestin, Agonist (RC50, uM) results are on record in patent publication US20160136231A1.

This assay has as its target mouse ChemR23, PathHunter β-Arrestin cell line (mouse) (UniProt P97468). Description: cell-based or functional assay.

mouse ChemR23, PathHunter β-Arrestin cell line (mouse), sequence (P97468 whole entry): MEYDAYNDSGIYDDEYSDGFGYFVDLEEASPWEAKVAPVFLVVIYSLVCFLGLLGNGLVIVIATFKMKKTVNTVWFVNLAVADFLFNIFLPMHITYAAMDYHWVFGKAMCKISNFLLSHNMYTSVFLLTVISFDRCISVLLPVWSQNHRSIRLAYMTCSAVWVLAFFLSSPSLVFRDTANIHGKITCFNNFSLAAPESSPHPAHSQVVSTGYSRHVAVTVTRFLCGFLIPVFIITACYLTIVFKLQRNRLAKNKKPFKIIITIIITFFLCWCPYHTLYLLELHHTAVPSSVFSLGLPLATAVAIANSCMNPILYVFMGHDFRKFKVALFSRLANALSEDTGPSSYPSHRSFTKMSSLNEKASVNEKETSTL

For “hrChemerin (from UniProt Q99969 21-157) (ligand)”, the EC50, Arrestin, Agonist (RC50, uM) worked out at 0.00154 µM.
